In paper PMC5858146:

How the values were obtained:
[1] = molecular target: Porcine gastric mucin (PGM) (porcine); test: ITC; ITC-200 at 37 °C, pH 4.5; PGM solution (40 μM) in the 200 μL cell, KTN or KOS solution (1% w/v) in the syringe
[2] = molecular target: Porcine gastric mucin (PGM) (porcine); test: ITC; ITC-200 at 37 °C, pH 7.4; PGM solution (40 μM) in the 200 μL cell, KTN or KOS solution (1% w/v) in the syringe
[3] = molecular target: Porcine gastric mucin (PGM) (porcine); test: as above; remark: listed apart in the source
[4] = molecular target: Porcine gastric mucin (PGM) (porcine); test: as above; remark: listed apart in the source

Row | Substance | Ka [1] | dH [1] | stoichiometry N [1] | Ka [2] | dH [2] | stoichiometry N [2] | Ka [3] | dH [4]
1 | kerateine (reduced keratin, KTN) | 398000 M⁻¹ | -2.41 kcal/mol | 1.23 | 10700 M⁻¹ | -3.47 kcal/mol | 1.5 |  | 
2 | keratose (oxidized keratin, KOS) | 15500 M⁻¹ | -4.25 kcal/mol | 1.15 | 4140 M⁻¹ | -61.1 kcal/mol | 1.27 | 41400 M⁻¹ | 61.1 kcal/mol
